Measured values as given in article PMC6015067.

Experiments:
[1] = target: LIM protein Ajuba (human (endogenous in HTC75)) (UniProt Q96IF1); assay: co-IP; IP-Western of endogenous proteins from HTC75 total extracts (also IMR90) with Ajuba serum or antibodies to RPA70, RPA32 or RPA14; cells untreated, treated with 2 mM hydroxyurea for 24 hr (association reduced) or synchronized by double thymidine block and released for 2 hr (no perceptible effect)
[2] = target: His-tagged full-length Ajuba (UniProt Q96IF1); assay: pull-down; His-tag pull-down on Ni-NTA beads of proteins co-translated in one rabbit reticulocyte lysate reaction with 35S-methionine; beads blocked with 2% BSA, 30 minutes at room temperature, TBST pH 8.0, six washes; autoradiography, signal normalized to input and number of methionines

Sequence of RPA70-OB½ABC (P27694 234-612): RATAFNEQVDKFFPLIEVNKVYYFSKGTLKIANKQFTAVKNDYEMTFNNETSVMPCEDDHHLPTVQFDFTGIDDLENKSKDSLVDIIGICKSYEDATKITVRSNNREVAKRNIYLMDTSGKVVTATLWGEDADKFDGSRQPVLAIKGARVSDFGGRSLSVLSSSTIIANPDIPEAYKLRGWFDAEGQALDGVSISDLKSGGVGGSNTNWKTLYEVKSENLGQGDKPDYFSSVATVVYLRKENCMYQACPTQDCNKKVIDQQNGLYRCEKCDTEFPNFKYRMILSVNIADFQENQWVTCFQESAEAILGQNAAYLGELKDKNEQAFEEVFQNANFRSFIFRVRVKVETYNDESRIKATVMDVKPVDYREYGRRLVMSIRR

pull down efficiency (% of total RPA in association with Ajuba) [1]	pull down relative to full-length RPA70 (set at 100%) [2]	Substance
2 to 5%	–	total RPA
–	58.7%	RPA70-OB½ABC (from UniProt P27694 234-612) (domain or fragment)
